# Experimental data as given in US20260210971A1 (Pfizer, published 2026).
# Like-named read-outs stand apart in the source and are kept apart here.
# T1: recombinant soluble rat TL1A (rat, UniProt Q8K3Y7 76-252)
# T1 construct: also called rat rsTL1A
# T1 sequence: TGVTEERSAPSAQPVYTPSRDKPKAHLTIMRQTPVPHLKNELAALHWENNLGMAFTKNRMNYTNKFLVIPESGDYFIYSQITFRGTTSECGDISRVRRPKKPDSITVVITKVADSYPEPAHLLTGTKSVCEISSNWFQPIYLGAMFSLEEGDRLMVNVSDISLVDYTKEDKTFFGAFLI
# T2: recombinant soluble cynomolgus monkey TL1A (cynomolgus monkey, UniProt O95150 72-251 (human entry))
# T2 construct: also called cyno rsTL1A; cyno TL1A
# T2 chain: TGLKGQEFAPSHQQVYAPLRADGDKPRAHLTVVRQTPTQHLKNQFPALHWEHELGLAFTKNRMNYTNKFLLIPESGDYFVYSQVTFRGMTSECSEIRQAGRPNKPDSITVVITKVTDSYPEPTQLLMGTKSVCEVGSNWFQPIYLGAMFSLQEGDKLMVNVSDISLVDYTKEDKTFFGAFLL
# T3: recombinant soluble murine TL1A (mouse, UniProt Q5UBV8 75-252)
# T3 construct: also called murine rsTL1A; mouse TL1A
# T3 chain: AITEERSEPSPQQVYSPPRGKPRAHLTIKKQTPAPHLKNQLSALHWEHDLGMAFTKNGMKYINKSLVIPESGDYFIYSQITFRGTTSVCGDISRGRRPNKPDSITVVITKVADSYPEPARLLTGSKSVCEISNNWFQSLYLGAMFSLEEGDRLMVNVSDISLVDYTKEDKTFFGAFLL
# T4: endogenous TL1A of stimulated human peripheral blood (human, UniProt O95150 72-251, limits assumed)
# T4 sequence (looked up): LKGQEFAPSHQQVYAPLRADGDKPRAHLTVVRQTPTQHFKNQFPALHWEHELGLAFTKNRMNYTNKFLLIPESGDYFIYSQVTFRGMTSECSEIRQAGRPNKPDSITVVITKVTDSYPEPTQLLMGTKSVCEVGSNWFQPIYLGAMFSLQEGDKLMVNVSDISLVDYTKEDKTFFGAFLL
# T5: recombinant soluble rabbit TL1A (rabbit)
# T5 construct: also called rabbit rsTL1A
# T5 chain: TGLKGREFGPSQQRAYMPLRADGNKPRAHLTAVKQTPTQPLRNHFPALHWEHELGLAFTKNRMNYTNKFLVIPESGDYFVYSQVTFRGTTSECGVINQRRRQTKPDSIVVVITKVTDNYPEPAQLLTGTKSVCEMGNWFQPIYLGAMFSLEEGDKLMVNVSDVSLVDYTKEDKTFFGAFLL
# T6: DR3 on TF-1 cells (human, UniProt Q93038 25-417)
# T6 sequence (looked up): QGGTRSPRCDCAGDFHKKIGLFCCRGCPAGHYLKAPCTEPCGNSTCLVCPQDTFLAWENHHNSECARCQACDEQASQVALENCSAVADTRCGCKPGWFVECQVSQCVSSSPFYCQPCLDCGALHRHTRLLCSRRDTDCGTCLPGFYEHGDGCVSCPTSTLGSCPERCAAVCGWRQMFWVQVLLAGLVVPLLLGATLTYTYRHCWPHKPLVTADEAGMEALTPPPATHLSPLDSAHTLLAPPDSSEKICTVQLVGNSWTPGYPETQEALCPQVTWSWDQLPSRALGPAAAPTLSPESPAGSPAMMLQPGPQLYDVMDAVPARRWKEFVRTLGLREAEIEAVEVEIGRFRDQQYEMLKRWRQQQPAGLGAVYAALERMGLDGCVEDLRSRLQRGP
# B1: recombinant soluble human TL1A (ligand)
# chain: ALKGQEFAPSHQQVYAPLRADGDKPRAHLTVVRQTPTQHFKNQFPALHWEHELGLAFTKNRMNYTNKFLLIPESGDYFIYSQVTFRGMTSECSEIRQAGRPNKPDSITVVITKVTDSYPEPTQLLMGTKSVCEVGSNWFQPIYLGAMFSLQEGDKLMVNVSDISLVDYTKEDKTFFGAFLL
# Tests used:
# [1] = target: T1, recombinant soluble rat TL1A; experiment: SPR, IgG captured on anti-hIgG, TL1A injected
# From the text: (§1) The antibodies were captured via directly immobilized anti-human IgG (GE Healthcare) onto a carboxymethylated dextran sensor chip surface (CM5) using a Biacore T100 or T200 instrument. Anti-human IgG was immobilized through amine coupling to densities of approximately 4,000-13,000 response units (RU). […] At the end of each cycle, the entire anti-hIgG surface was regenerated by a 30-second pulse of 3M MgCl₂ followed by two consecutive 15-second pulses of PBS-NET. […] All injections were performed at 25° C. at a collection rate of 10 Hz. All sensorgrams were double referenced by using both a control surface and buffer injections. Rate constants were determined by fitting the data to a 1:1 model in Biacore T100, T200 evaluation software v1.0, or BIAevaluation software v4.1.1 and the equation KD=Kd/kₐ.
# (§2) At the highest cytokine concentrations, the dissociation phase was sometimes extended to 60 minutes to achieve at least a 5% decrease in binding signal.
# [2] = target: T2, recombinant soluble cynomolgus monkey …; experiment: SPR, IgG captured on anti-hIgG, TL1A injected;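 as to t1/2: biacore surface plasmon resonance on a dextran sensor chip, double-referenced sensorgrams fitted to a one-to-one binding model, KD taken as dissociation over association rate constant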
# [3] = target: T3, recombinant soluble murine TL1A; experiment: SPR, IgG captured on anti-hIgG, TL1A injected;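 as to koff: biacore measurement on a carboxymethylated dextran chip, double-referenced against a control surface and buffer, rates fitted to a one-to-one binding model, KD from koff over kon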;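 as to kon: biacore measurement on a carboxymethylated dextran chip, double-referenced against a control surface and buffer, rates fitted to a one-to-one binding model, KD from koff over kon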
# [4] = target: T4, endogenous TL1A of stimulated human …; experiment: cell-based or functional assay
# [5] = target: T2, recombinant soluble cynomolgus monkey …; experiment: KinExA, equilibrium in solution
# Method: (§3) This assay involves pre-incubating antibody: antigen mixtures in solution long enough to reach equilibrium before measuring the level of unbound antibody using a solid phase component. […] Beads were blocked for 1 hour with PBS plus 10 mg/ml bovine serum albumin (bovine serum albumin, Sigma) at room temperature before being diluted up to a total of 27 ml in PBS. […] For each titration series, a buffer sample and a sample of antibody alone were included. Each antibody: TL1A mixture was tumbled at room temperature for at least six hours to reach equilibrium and then each mixture was injected over the solid phase of TL1A-coated beads in the instrument flow cell. […] Beads were replenished between each sample. Binding signals of detected free antibody were converted to percentage of free, unbound antibody as measured by the antibody only sample and plotted versus each concentration of TL1A. For each antibody, the KD and ABC controlled curves were fit simultaneously using n-Curve Analysis software v3.1.4 to fit the curves to the ‘affinity, unknown ligand’ model and measure an equilibrium KD.
# (§4) Solution-based kinetic exclusion assays (KinExA) were carried out as an orthogonal technique to measure equilibrium KD values.
# [6] = target: T3, recombinant soluble murine TL1A; experiment: KinExA, equilibrium in solution
# Method: as §3, §4
# [7] = target: T5, recombinant soluble rabbit TL1A; experiment: SPR, IgG captured on anti-hIgG, TL1A injected
# From the text: as §1, §2
# [8] = target: T2, recombinant soluble cynomolgus monkey …; experiment: SPR, IgG captured on anti-hIgG, TL1A injected;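 as to t1/2: biacore surface plasmon resonance on a dextran sensor chip, double-referenced sensorgrams fitted to a one-to-one binding model, KD taken as dissociation over association rate constant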
# [9] = target: T3, recombinant soluble murine TL1A; experiment: SPR, IgG captured on anti-hIgG, TL1A injected;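 as to koff: biacore measurement on a carboxymethylated dextran chip, double-referenced against a control surface and buffer, rates fitted to a one-to-one binding model, KD from koff over kon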;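 as to kon: biacore measurement on a carboxymethylated dextran chip, double-referenced against a control surface and buffer, rates fitted to a one-to-one binding model, KD from koff over kon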
# [10] = target: T2, recombinant soluble cynomolgus monkey …; experiment: SPR, IgG captured on anti-hIgG, TL1A injected;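 as to t1/2: biacore surface plasmon resonance on a dextran sensor chip, double-referenced sensorgrams fitted to a one-to-one binding model, KD taken as dissociation over association rate constant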
# From the text: To characterize the binding kinetics of the anti-TL1A antibodies to TL1A by surface plasmon resonance, each anti-TL1A antibody was captured via directly immobilized anti-human IgG (GE Healthcare) onto a carboxymethylated dextran sensor chip surface (CM5) using a Biacore T100 or T200 instrument. Anti-human IgG was immobilized through amine coupling to densities of approximately 4,000-13,000 response units (RU). […] At the end of each cycle, the entire anti-human IgG (hIgG) surface was regenerated by a 30-second pulse of 3M MgCl₂ followed by two consecutive 15-second pulses of PBS-NET. All injections were performed at 25° C. at a collection rate of 10 Hz. All sensorgrams were double referenced by using both a control surface and buffer injections. Rate constants were determined by fitting the data to a 1:1 model in Biacore T100, T200 evaluation software v1.0, or BIAevaluation software v4.1.1 and the equation KD=kd/kₐ.
# The anti-TL1A antibodies were captured onto immobilized anti-human Fc on a CM5 sensor chip on a Biacore T100 instrument. […] Rate constants shown in the table were determined by fitting to a 1:1 Langmuir binding model in BiaEvaluation v4.1.1 (fit lines shown in red). Data shown are the average and standard deviation of at least 3 independent surfaces between 2 experiments.
# [11] = target: B1; experiment: binding test of the 1D1 point mutants, method not named
# [12] = target: B1; experiment: cell-based or functional assay
# [13] = target: B1; experiment: KinExA, equilibrium in solution
# Method: as §3, §4
# [14] = target: B1; experiment: SPR, IgG captured on anti-hIgG, TL1A injected; off rate too slow to measure;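 as to t1/2: biacore surface plasmon resonance on a dextran sensor chip, double-referenced sensorgrams fitted to a one-to-one binding model, KD taken as dissociation over association rate constant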
# DR3 on TF-1 cells = target: T6, DR3 on TF-1 cells; experiment: cell-based or functional assay
Kd [1] [pM],koff [1] [s⁻¹],kon [1] [M⁻¹ s⁻¹],t1/2 [1] [min],"HWB Assay, average IC50 [4] [pM]",Kd [7] [pM],koff [7] [s⁻¹],kon [7] [M⁻¹ s⁻¹],t1/2 [7] [min],Kd [8] [pM],koff [8] [s⁻¹],kon [8] [M⁻¹ s⁻¹],t1/2 [8] [min],Kd [9] [pM],koff [9] [s⁻¹],kon [9] [M⁻¹ s⁻¹],t1/2 [9] [min],Kd [11] [pM],Binder,further results
8140,0.0134,1.71e+06,0.867,248,1310,0.00079,610000,14.6,6690,0.0041,600000,2.82,7290,0.0036,490000,3.25,,"anti-TL1A antibody 1D1 (antibody, human IgG1, kappa, V domains shown, Human IgG1 with effector-null triple mutation (hIgG1-3m), kappa; The first binning was done with the antibodies from the hybridoma screen; also called 1D1 parental; Parental 1D1) VH: QVQLVQSGAEVKKPGASVKVSCKASGYSFTYYGISWVRQAPGQGLEWMGWISTYNGNTNYARMLQGRVTMTTDTSTRTAYMELRSLRSDDTAVYYCARENYYGSGSYRGGMDVWGQGTTVTVSS VL: EIVLTQSPATLSLSPGERATLSCRASQSVSSYLAWYQQKPGQAPRLLIYDASNRATGIPARFSGSGSGTDFTLTISSLEPEDFAVYYCQQRSNWPWTFGQGTKVEIKR",Kd [2]: 1670 pM; Kd [3]: 1320 pM; Kd [5]: 384 pM; Kd [6]: 383 pM; Kd [10]: 7000 pM; koff [10]: 0.0041 s⁻¹; kon [10]: 600000 M⁻¹ s⁻¹
,,,,,,,,,,,,,,,,,420,"1D1 with heavy chain mutation S28D (antibody, V domains shown, Point mutant of 1D1 CDR-H1) VH: QVQLVQSGAEVKKPGASVKVSCKASGYDFTYYGISWVRQAPGQGLEWMGWISTYNGNTNYARMLQGRVTMTTDTSTRTAYMELRSLRSDDTAVYYCARENYYGSGSYRGGMDVWGQGTTVTVSS VL: EIVLTQSPATLSLSPGERATLSCRASQSVSSYLAWYQQKPGQAPRLLIYDASNRATGIPARFSGSGSGTDFTLTISSLEPEDFAVYYCQQRSNWPWTFGQGTKVEIK",
10900,0.0072,670000,1.6,0.968,478,0.00014,300000,82.1,220,8e-05,390000,141,1640,0.00043,270000,26.9,,"1D1 1.27 (antibody, human IgG1, kappa, V domains shown, Expressed as IgG1) VH: QVQLVQSGAEVKKPGASVKVSCKASGYDFTYYGISWVRQAPGQGLEWMGWISTYNGNTHYARMLQGRVTMTTDTSTRTAYMELRSLRSDDTAVYYCARENYYGSGSYRGGMDVWGQGTTVTVSS VL: EIVLTQSPATLSLSPGERATLSCRASQSVSSYLAWYQQKPGQAPRLLIYDASNRATGIPARFSGSGSGTDFTLTISSLEPEDFAVYYCQQRSNWPWTFGQGTKVEIKR","Caspase Assay, average IC50 [12]: 70.2 pM; NFkB Assay, average IC50 [12]: 140 pM; Kd [13]: 7.69 pM; Kd [14]: < 100 pM"
,,,,,,,,,,,,,,,,,12700,"1D1 with heavy chain mutation Y31H (antibody, V domains shown, Point mutant of 1D1 CDR-H1) VH: QVQLVQSGAEVKKPGASVKVSCKASGYSFTHYGISWVRQAPGQGLEWMGWISTYNGNTNYARMLQGRVTMTTDTSTRTAYMELRSLRSDDTAVYYCARENYYGSGSYRGGMDVWGQGTTVTVSS VL: EIVLTQSPATLSLSPGERATLSCRASQSVSSYLAWYQQKPGQAPRLLIYDASNRATGIPARFSGSGSGTDFTLTISSLEPEDFAVYYCQQRSNWPWTFGQGTKVEIK",
,,,,,,,,,,,,,,,,,6800,"1D1 with heavy chain mutation S28Q (antibody, V domains shown, Point mutant of 1D1 CDR-H1) VH: QVQLVQSGAEVKKPGASVKVSCKASGYQFTYYGISWVRQAPGQGLEWMGWISTYNGNTNYARMLQGRVTMTTDTSTRTAYMELRSLRSDDTAVYYCARENYYGSGSYRGGMDVWGQGTTVTVSS VL: EIVLTQSPATLSLSPGERATLSCRASQSVSSYLAWYQQKPGQAPRLLIYDASNRATGIPARFSGSGSGTDFTLTISSLEPEDFAVYYCQQRSNWPWTFGQGTKVEIK",
,,,,,,,,,,,,,,,,,,B1,"NFκB-luciferase activity in TF-1-NFκB-luciferase cells, EC50 (DR3 on TF-1 cells): 149 pM; NFκB-luciferase activity, EC50 in the absence of isotype control antibody (DR3 on TF-1 cells): 103 pM; NFκB-luciferase activity, EC50 in the presence of isotype control antibody (DR3 on TF-1 cells): 110 pM; caspase activity in TF-1 cells with cycloheximide, EC50 (DR3 on TF-1 cells): 90 pM"
